# Test results from article PMC3524126, “Live-Cell Visualization of Intracellular Interaction between a Nuclear Migration Protein (hNUDC) and the Thrombopoietin Receptor (Mpl)” (PLoS ONE, 2012).
# T1: Flag-Mpl-VN (full-length thrombopoietin receptor Mpl fused to the N-terminal half of Venus) (UniProt P40238 26-635)
# T1 construct: Inserted between Flag and VN in pBiFC-VN173; also called pFlag-Mpl-VN; source: Cos-1, transiently transfected, in living cells; not shown: Flag, N-terminal, kept; Venus N-terminal fragment 1-173 (VN), C-terminal, kept
# T1 sequence (looked up): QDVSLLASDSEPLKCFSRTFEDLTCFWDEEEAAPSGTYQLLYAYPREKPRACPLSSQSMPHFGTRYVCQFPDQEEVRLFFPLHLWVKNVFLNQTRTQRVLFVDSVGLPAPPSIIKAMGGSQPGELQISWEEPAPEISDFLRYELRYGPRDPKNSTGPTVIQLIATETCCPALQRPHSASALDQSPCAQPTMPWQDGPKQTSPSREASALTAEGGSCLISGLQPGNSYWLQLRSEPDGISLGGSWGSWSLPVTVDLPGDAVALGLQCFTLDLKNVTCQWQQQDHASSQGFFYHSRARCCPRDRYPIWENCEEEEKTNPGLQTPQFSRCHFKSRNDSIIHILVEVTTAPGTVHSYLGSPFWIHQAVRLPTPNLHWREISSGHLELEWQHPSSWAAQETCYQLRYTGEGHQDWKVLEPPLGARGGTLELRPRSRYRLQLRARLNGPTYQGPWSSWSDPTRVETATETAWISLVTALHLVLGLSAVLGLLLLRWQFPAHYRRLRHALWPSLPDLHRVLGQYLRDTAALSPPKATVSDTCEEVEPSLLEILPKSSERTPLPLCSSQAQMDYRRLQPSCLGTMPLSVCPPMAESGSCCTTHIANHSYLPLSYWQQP
# B1: HA-hNUDC-VC (full-length human NUDC fused to the C-terminal half of Venus) (natural protein)
# chain: not shown
# notes: Cloned between HA and VC in pBiFC-VC155; also called pHA-hNUDC-VC; phNUDC-VC; source: Cos-1, transiently transfected, in living cells; not shown: HA, N-terminal, kept; Venus C-terminal fragment 155-238 (VC), C-terminal, kept
# B2: HA-hNUDC(1-159)-VC (N-terminal half of hNUDC fused to the C-terminal half of Venus) (domain or fragment)
# chain: not shown
# notes: human NUDC (hNUDC), N-terminal half, residues 1-159; Cloned between HA and VC in pBiFC-VC155; also called pHA-hNUDC(1-159)-VC; source: Cos-1, transiently transfected, in living cells; not shown: HA, N-terminal, kept; Venus C-terminal fragment 155-238 (VC), C-terminal, kept
# Target: T1, Flag-Mpl-VN (full-length thrombopoietin …)
# Assay: split reporter (BiFC, NanoBiT); Venus BiFC read by flow cytometry of Cos-1 cells, 12 h after transfection; 1x10^4 cells, Venus-positive cells against untransfected and empty-vector cells
# Details: partners not purified
binder,measurement,value
B1,fold increase of the Venus signal over untransfected Cos-1 cells,16.7 fold
B2,fold increase of the Venus signal over untransfected Cos-1 cells,16.2 fold
